Measurements reported in patent US20170015742A1 (published 2017).
Positions count from the first letter of the chain named. Where “and” joins values, the source holds several entries; their conditions need not be identical. Equal entries are not always repeated. Each block holds one binder with its values, some of them ahead of it.

Legend:
rat PDGF-B (PR-1645048) = target: T1, rat PDGF-B (PR-1645048) (rat, UniProt Q05028 74-182); test: SPR (Biacore), antibody captured by anti-human Fc, antigen injected
T1 construct: Lot 2235300; also called rat PDGF-BB; ratPDGF-BB
T1 sequence (Q05028 74-182 limits assumed): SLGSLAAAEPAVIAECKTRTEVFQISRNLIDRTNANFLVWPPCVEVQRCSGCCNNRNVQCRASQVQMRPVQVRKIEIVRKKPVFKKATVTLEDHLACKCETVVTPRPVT
Procedure: (§1) Unreacted moieties on the biosensor surface were blocked with ethanolamine. For kinetic analysis, rate equations derived from the 1:1 Langmuir binding model were fitted simultaneously to multiple antigen injections (using global fit analysis) with the use of Scrubber 2 (BioLogic Software), Biacore Biaevaluation 4.0.1 software or Biacore T100 Evaluation software. Purified antibodies or DVD-Ig molecules were diluted in running buffer for capture across goat anti-human Fc reaction surfaces. Antibodies or DVD-Ig molecules to be captured as a ligand (1 μg/ml) were injected over reaction matrices at a flow rate of 10 μl/minute. During the assay, all measurements were referenced against the capture surface alone (i.e., with no captured antibody or DVD-Ig molecule). […] The equilibrium dissociation constant KD (M) of the reaction between antibodies and the target antigen was then calculated from the kinetic rate constants by the following formula: KD=Koff/Kₒₙ. Binding was recorded as a function of time and kinetic rate constants were calculated. In this assay, on-rates as fast as 10⁶M⁻¹s⁻¹ and off-rates as slow as 10⁻⁶ s⁻¹ could be measured.

Human VEGF-A 165 [1] = target: T2, Human VEGF-A 165 (human, UniProt P15692 207-395); test: SPR (Biacore), antibody captured by anti-human Fc, hVEGF165 as analyte
T2 construct: Recombinant human VEGF165; also called huVEGF-A165; hVEGF165
Procedure: as §1, with “For example, approximately 9000 RU of goat anti-human Fc specific polyclonal antibody (Thermo Fisher Scientific Inc., Rockford, Ill.) diluted in 10 mM sodium acetate (pH 4.5) is directly immobilized across a CM5 research grade biosensor chip using a standard amine coupling kit according to manufacturer's instructions and procedures at 25 μg/ml. Unreacted” for “Unreacted”, “calculated.” for “calculated. In this assay, on-rates as fast as 10⁶M⁻¹s⁻¹ and off-rates as slow as 10⁻⁶ s⁻¹ could be measured.”

Human VEGF-A 165 [2] = target: T2, Human VEGF-A 165; test: cell-based or functional assay
human VEGF111 = target: T3, human VEGF111 (human, UniProt P15692-10 27-137); test: cell-based or functional assay
T3 sequence (looked up): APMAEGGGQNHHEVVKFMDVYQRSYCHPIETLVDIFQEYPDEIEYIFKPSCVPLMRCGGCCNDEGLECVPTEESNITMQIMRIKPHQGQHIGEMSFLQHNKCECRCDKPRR

Human VEGF-A 165 [3] = target: T2, Human VEGF-A 165; test: receptor competition ELISA: antibody titrated against biotinylated hVEGF165, binding to coated hVEGF-R2-Fc read
Procedure: To identify molecules that could block the binding of hVEGF₁₆₅ to the hVEGF-R2 (KDR/Flk-1) receptor, a competition ELISA was performed. […] Plates were then washed four times with wash buffer (TBS, 0.05% Tween-20) and blocked with Superblock blocking buffer (Thermo Scientific, cat#37535). […] The pre-incubated sample/hVEGF₁₆₅ complex was added to the coated plate at 50 μL in duplicate and incubated for 30 minutes at 25° C. with shaking. Following incubation, plates were washed four times with wash buffer. Streptavidin-polyHRP-40 (Fitzgerald cal#65r-s104phrp) was diluted in assay diluent (10% Superblock containing 0.05% surfactamps) and added to plates (50 μL) for 45 minutes at 25° C. with shaking. Plates were washed four times with wash buffer and developed with the addition of Enhanced K-blue TMB substrate (Neogen cat#308177). The reaction was stopped with 2N sulfuric acid (VWR, cat# BDH3500-1) and the absorbance was read at 450 nm-570 nm. A decrease in observed optical density indicates the test molecule is blocking the hVEGF₁₆₅ binding to the hVEGF-R2-Fc. Data was analyzed using Softmax Pro 4.8 software and IC₅₀ values calculated using a sigmoidal dose response (variable slope) fit in GraphPad Prism 5.

[4] = target: T4, recombinant human PDGF-BB (human, UniProt P01127 82-190, biotin-labelled in the binding and competition ELISAs (sites not given)); test: receptor competition ELISA: antibody pre-incubated with biotin-hPDGF-BB, binding to coated hPDGF-Rβ-Fc
T4 construct: Bought protein (CST cat#8912BF) in the ELISAs and cell assays; purified recombinant PDGF-BB in Biacore; also called huPDGF-BB; hPDGF-BB
Procedure: (§2) Plates were then washed four times with wash buffer (TBS, 0.05% Tween-20) and blocked with Superblock blocking buffer (Thermo Scientific, cat#37535). During the blocking step, supernatants, antibodies, benchmark compounds or DVD-Ig were diluted in assay diluent (10% Superblock containing 0.05% surfactamps) and an eight point titration of each sample molecule was performed. […] Following incubation, plates were washed four times with wash buffer. Detection reagent Streptavidin-polyHRP-40 (Fitzgerald, cat#65r-s104phrp) was diluted in assay diluent and added to plates (50 μL) for 45 minutes at 25° C. with shaking. Plates were washed four times with wash buffer and developed with the addition of Enhanced K-blue TMB substrate (Neogen, cat#308177). The reaction was stopped with 2N sulfuric acid (VWR, cat# BDH3500-1) and the absorbance was read at 450 nm-570 nm. […] Data was analyzed using Softmax Pro 4.8 software and IC₅₀ values calculated using a sigmoidal dose response (variable slope) fit in GraphPad Prism 5.
Target sequence in this assay (P01127 82-190 limits assumed): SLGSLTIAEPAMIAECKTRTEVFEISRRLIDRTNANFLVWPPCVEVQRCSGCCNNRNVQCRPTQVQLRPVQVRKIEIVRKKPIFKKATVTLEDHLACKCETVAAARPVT

[5] = target: T4, recombinant human PDGF-BB; test: cell-based or functional assay
Target sequence in this assay (P01127 82-190 limits assumed): as above

recombinant rat PDGF-BB [6] = target: recombinant rat PDGF-BB (rat, UniProt Q05028 74-182); test: cell-based or functional assay
Target sequence in this assay (Q05028 74-182 limits assumed): as the sequence (Q05028 74-182 limits assumed) above

[7] = target: T5, recombinant human PDGF-BB (human, UniProt P01127 82-190); test: competition ELISA: blocks biotin-hPDGF-BB binding to coated hPDGF-Rβ-Fc
T5 construct: Bought (CST cat#8912BF), biotinylated for the ELISAs; Dimer of two B chains; also called huPDGF-BB; hPDGF-BB
T5 sequence (P01127 82-190 limits assumed): as the sequence (P01127 82-190 limits assumed) above
Procedure: as §2

[8] = target: T5, recombinant human PDGF-BB; test: cell-based or functional assay
recombinant rat PDGF-BB [9] = target: recombinant rat PDGF-BB (rat, UniProt Q05028 74-182); test: cell-based or functional assay; remark: listed apart in the source
Target sequence in this assay (Q05028 74-182 limits assumed): as the sequence (Q05028 74-182 limits assumed) above

[10] = target: T4, recombinant human PDGF-BB; test: Biacore SPR, antibody captured, PDGF-BB injected
Procedure: as §1, with “For example, approximately 9000 RU of goat anti-human Fc specific polyclonal antibody (Thermo Fisher Scientific Inc., Rockford, Ill.) diluted in 10 mM sodium acetate (pH 4.5) is directly immobilized across a CM5 research grade biosensor chip using a standard amine coupling kit according to manufacturer's instructions and procedures at 25 μg/ml. Unreacted” for “Unreacted”, “calculated.” for “calculated. In this assay, on-rates as fast as 10⁶M⁻¹s⁻¹ and off-rates as slow as 10⁻⁶ s⁻¹ could be measured.”

B1: CL-33675 (antibody, V domains shown)
VH: EVTLRESGPALVKPTQTLTLTCTFSGFSLSTYGMGVGWIRQPPGKALEWLANIWWDDDKYYNPSLKNRLTISKDTSKNQVVLTMTNMDPVDTATYYCARIESSGPKYSFDYWGQGTMVTVSS
VL: EIVLTQSPGTLSLSPGERATLSCRASSGSIWYSFVSWYQQKPGQAPRLLIYADDQRASGIPDRFSGSGSGTDFTLTISRLEPEDFAVYYCQSYGINIDVVFGGGTKVEIK
notes: Converted to IgG; also called CL-33675-IgG; PR-1593725
Kd (rat PDGF-B (PR-1645048)): ≤ 0.58 pM | koff (rat PDGF-B (PR-1645048)): 5.8e-06 s⁻¹ | kon (rat PDGF-B (PR-1645048)): ≥ 1e+07 M⁻¹ s⁻¹

B4: BDI-9E8-E7 (antibody, IgG2b, V domains shown)
VH: QVTLKESGPGILQPSQTLSLTCTFSGFSLSTYGMGVGWIRQPSGKGLEWLANIWWDDDKYYNPSLKNRLTISKDTSNNQAFLKITNVDTADTATYYCARIESIGTTYSFDYWGQGVMVTVSS
VL: QFTLTQPKSVSGSLRSTITIPCERSSGDIGDSYVSWYQQHLGRPPINVIYADDQRPSEVSDRFSGSIDSSSNSASLTITNLQMDDEADYFCQSYDINIDIVFGGGTKLTVL
notes: Rat hybridoma monoclonal antibody
IC50 [7]: 1120 pM | Phospho-Tyr751/hPDGF-BB Neutralization [8]: 0.629 nM | huPDGF-BB Neutralization Potency (nM) in NIH-3T3 Cells [8]: 0.195 nM | Phospho-Tyr751/ratPDGF-BB Neutralization (recombinant rat PDGF-BB [9]): 0.333 nM

B5: BDI-5H1-F6 (antibody, IgG2b, V domains shown)
VH: QVTLKESGPGILQPSQTLSLTCTFSGFSLSTFGMGVGWIRQPSGKGLEWLANIWWDDDKYYNPSLKNRLTISKDTSNSQAFLEITNVDTADTATYYCARISTGISSYYVMDAWGQGASVTVSS
VL: B4 VL with S32T, A51G, D52N, I96S, N97D
notes: as for B4
IC50 [7]: 528 pM | Phospho-Tyr751/hPDGF-BB Neutralization [8]: 0.884 nM | huPDGF-BB Neutralization Potency (nM) in NIH-3T3 Cells [8]: 0.371 nM | Phospho-Tyr751/ratPDGF-BB Neutralization (recombinant rat PDGF-BB [9]): 0.319 nM

B7: BDI-7H10-D8 (antibody, IgG2b, V domains shown)
VH: EVKLQQSGDELVRPGASVKMSCKASGYTFTDYAMHWVKQSPGQGLEWIGTIIPLIDTTSYNQKFKGKATLTADTSSNTAYMELSRLTSEDSAVYYCARDWDNNWGYFDYWGQGVMVTVSS
VL: DVVLTQTPVSLSVTLGDQASISCRSSQSLEYSDGYTYLEWYLQKPGQSPQLLIYGVSNRFSGVPDRFIGSGSGTDFTLKISRVEPEDLGVYYCFQATHDPLTFGSGTKLEIK
Phospho-Tyr751/ratPDGF-BB Neutralization (recombinant rat PDGF-BB [9]): > 5 nM

B9: BFU-11A8-D6-C3 (antibody, V domains shown)
VH: EVQLQQSGPELQRPGASVKLSCKASGYTFTESYIYWVKQRPEQSLELIGRIDPEDGSTDYVEKFKNKATLTADTSSNTAYMQLSSLTSEDTATYFCARFGARSYFYPMDAWGQGTSVTVSS
VL: DTVLTQSPTLAVSPGERVSIPCRASESVSTLMHWYQQKPGQQPRLLIYGASNLESGVPARFSGSGSGTDFTLTIDPVEADDTATYFCQQSWNDPWTFGGGTKLELK
Kd [10]: ≤ 0.047 pM | koff [10]: ≤ 1e-06 s⁻¹ | kon [10]: 2.1e+07 M⁻¹ s⁻¹

The remaining lines, values ahead:

Kd (Human VEGF-A 165 [1]): 8.8 pM | kon (Human VEGF-A 165 [1]): 4.9e+06 M⁻¹ s⁻¹ | huVEGF-A165 Neutralization Potency in HMVEC-d cells (Human VEGF-A 165 [2]): 31 pM | Phospho-Tyr1054/huVEGF-A111 Neuterlization (human VEGF111): 0.435 nM | IC50 (Human VEGF-A 165 [3]): 148 pM
B2: chBEW-6C2 (antibody, human IgG1, kappa, L234A L235A, V domains shown)
VH: EVQLVESGGGLVQPGSSLKLSCAASGFTFSYYGMHWIRQAPKKGLEWMALIYYDSSKMYYADSVKGRFTISRDNSKNTLYLEMNSLRSEDTAMYYCAAGGTAPVYWGQGVMVTVSS
VL: NIQLTQSPSLLSASVGDRVTLSCKGSQNIANYLAWYQQKLGEAPKLLIYNTDSLQTGIPSRFSGSGSGTDYTLTISSLQPEDVATYFCYQSNNGYTFGAGTKLELRR

IC50 [4]: 1080 pM | huPDGF-BB Neutralization Potency (nM) in NIH-3T3 Cells [5]: 0.181 nM | ratPDGF-BB Neutralization Potency (nM) in NIH-3T3 Cells (recombinant rat PDGF-BB [6]): 0.118 nM
B3: chBDI-5G2 (antibody, human IgG1, V domains shown)
VH: B5 VH
VL: B4 VL with S32T, A51G, D52N, I96S, N97D
notes: also called chimeric BDI-5G2-F9

Kd (Human VEGF-A 165 [1]): 1.9 pM and 3.8 pM | kon (Human VEGF-A 165 [1]): 1.7e+07 M⁻¹ s⁻¹ and 1.2e+07 M⁻¹ s⁻¹ | huVEGF-A165 Neutralization Potency in HMVEC-d cells (Human VEGF-A 165 [2]): 195 pM | Phospho-Tyr1054/huVEGF-A111 Neuterlization (human VEGF111): 0.575 nM | IC50 (Human VEGF-A 165 [3]): 157 pM
B6: chBDB-4G8 (antibody, human IgG1, kappa, L234A L235A)
heavy: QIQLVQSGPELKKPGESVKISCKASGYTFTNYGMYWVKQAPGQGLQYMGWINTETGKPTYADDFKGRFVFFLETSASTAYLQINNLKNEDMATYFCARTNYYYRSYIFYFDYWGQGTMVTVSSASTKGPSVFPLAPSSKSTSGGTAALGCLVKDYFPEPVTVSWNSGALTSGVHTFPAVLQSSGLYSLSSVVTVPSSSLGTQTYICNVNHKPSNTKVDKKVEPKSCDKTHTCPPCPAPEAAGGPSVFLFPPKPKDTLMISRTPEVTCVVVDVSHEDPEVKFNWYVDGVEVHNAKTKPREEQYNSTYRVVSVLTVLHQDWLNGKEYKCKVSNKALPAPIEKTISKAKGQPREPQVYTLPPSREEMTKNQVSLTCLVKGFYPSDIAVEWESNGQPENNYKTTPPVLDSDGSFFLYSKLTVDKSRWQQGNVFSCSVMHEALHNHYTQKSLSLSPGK
light: DTVLTQSPALAVSPGERVSISCRASESVSTHMHWYQQKPGQQPKLLIYGASNLESGVPARFSGSGSGTDFTLTIDPVEADDTATYFCQQSWNDPFTFGAVTKLELKRTVAAPSVFIFPPSDEQLKSGTASVVCLLNNFYPREAKVQWKVDNALQSGNSQESVTEQDSKDSTYSLSSTLTLSKADYEKHKVYACEVTHQGLSSPVTKSFNRGEC

Kd (Human VEGF-A 165 [1]): ≤ 0.11 pM | kon (Human VEGF-A 165 [1]): 8.9e+06 M⁻¹ s⁻¹ | huVEGF-A165 Neutralization Potency in HMVEC-d cells (Human VEGF-A 165 [2]): 26 pM | Phospho-Tyr1054/huVEGF-A111 Neuterlization (human VEGF111): 0.26 nM | IC50 (Human VEGF-A 165 [3]): 97 pM
B8: chBEW-9A8 (antibody, human IgG1, kappa, L234A L235A, V domains shown)
VH: QIQLVQSGPELKKPGESVKISCKASGYTFTNYGMYWVKQAPGQGLQYMGWINTETGKPIYADDFKGRFVFFLETSASTAYLQINNLKNEDMATFFCARVDYDGSFWFAYWGQGTLVTVSS
VL: DTVLTQSPALAVSPGERVSISCRASESVSTVIHWYQQKPGQQPKLLIHGASNLESGVPARFSGSGSGTDFTLTIDPVEADDTATYFCQQHWNDPPTFGAGTKLEMKR
